Test results reported in US20040077046.

Test system: 3H-acetylated histone H4 peptide ([3H]-Ac(H41-24))

In the case of “flag epitope-tagged HDAC9 (HDAC9v1 with C-terminal flag tag)”, the “in vitro histone deacetylase assay (release of 3H-acetate from the peptide by immunoprecipitated enzyme)” value is reported as “HDAC9 could deacetylate the histone peptide substrate at a level that was equivalent to UDAC3 and HDAC4”.
